One assay has as its target hCCR2b (human) (UniProt P41597). Put plainly: cell-based or functional assay.
Assay [1] concerns the target chemokine (C-C motif) receptor 2 (CCR2) on peripheral blood cells (human) (UniProt P41597). Nature of the assay: in vitro depletion: blood of three healthy donors passed through a column with bMCP-1 coupled streptavidin Sepharose matrix, flow cytometry before and after. Background: In flow cytometry, cells or beads pass a laser one at a time.
Assay [2] has the same target. Nature of the assay: flow cytometry, biotinylated chemokine (1 µM) on blood cells of adiposis dolorosa patients, CD19 positive cells, detected with fluorophore conjugated streptavidin.
Assay [3] addresses chemokine (C-C motif) receptor 5 (CCR5) (human) (UniProt P51681). Put plainly: cell-based or functional assay.
The target in assay [4] is T1, chemokine (C-C motif) receptor 1 (CCR1) (human) (UniProt P32246).
T1 sequence (looked up): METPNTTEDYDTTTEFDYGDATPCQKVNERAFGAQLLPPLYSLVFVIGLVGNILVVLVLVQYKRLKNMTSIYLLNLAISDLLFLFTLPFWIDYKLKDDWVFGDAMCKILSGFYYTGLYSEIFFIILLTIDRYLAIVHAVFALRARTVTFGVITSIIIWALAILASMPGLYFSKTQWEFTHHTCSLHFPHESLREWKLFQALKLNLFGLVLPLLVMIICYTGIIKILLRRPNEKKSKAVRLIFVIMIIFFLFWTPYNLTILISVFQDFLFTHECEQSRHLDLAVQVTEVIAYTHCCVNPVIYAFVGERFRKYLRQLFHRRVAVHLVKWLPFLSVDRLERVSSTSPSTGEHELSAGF
Put plainly: in vitro depletion: blood of a healthy donor passed through a column with biotinylated RANTES coupled matrix, flow cytometry for CCR1, 3 or 5-expressing cells.

In assay [5] the target is T2, chemokine (C-C motif) receptor 3 (CCR3) (human) (UniProt P51677).
T2 sequence (looked up): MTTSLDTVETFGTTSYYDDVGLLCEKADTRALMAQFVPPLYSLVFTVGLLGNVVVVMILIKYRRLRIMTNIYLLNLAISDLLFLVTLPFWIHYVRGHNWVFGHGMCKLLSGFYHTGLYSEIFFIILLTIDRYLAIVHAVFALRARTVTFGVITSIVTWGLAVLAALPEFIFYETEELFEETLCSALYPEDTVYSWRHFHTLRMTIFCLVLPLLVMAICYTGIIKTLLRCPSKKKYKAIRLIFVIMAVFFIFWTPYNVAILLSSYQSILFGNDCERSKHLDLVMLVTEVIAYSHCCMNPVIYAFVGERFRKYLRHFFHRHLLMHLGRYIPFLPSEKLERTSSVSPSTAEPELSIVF
The assay is described as above.

The target of assay [6] is chemokine (C-C motif) receptor 5 (CCR5) (human) (UniProt P51681). The assay is described as above.
chemokine (C-C motif) receptor 5 (CCR5) (human), sequence (P51681 whole entry): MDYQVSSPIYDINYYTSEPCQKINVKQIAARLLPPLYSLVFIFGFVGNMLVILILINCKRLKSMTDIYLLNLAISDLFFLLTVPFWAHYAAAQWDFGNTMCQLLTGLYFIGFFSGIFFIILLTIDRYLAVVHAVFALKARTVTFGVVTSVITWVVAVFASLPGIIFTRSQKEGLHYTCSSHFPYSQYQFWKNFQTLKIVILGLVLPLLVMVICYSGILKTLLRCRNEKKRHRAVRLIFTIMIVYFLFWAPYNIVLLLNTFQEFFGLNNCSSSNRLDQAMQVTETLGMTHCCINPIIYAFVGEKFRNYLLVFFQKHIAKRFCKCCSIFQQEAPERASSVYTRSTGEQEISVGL

chemokine (C-C motif) receptor 2 (CCR2) on peripheral blood cells (human), sequence (P41597 whole entry): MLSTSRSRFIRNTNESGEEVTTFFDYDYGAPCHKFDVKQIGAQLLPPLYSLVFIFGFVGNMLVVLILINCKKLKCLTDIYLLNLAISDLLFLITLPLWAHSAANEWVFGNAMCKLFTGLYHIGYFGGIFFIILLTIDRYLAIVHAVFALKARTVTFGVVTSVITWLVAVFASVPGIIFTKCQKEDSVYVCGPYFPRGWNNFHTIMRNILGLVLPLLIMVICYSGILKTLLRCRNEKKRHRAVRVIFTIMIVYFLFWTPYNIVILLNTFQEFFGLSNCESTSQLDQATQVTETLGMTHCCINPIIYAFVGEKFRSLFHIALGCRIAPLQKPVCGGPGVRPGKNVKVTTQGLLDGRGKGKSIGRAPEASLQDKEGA
UniProt P13501, sequence (P13501 other isoform, or with tags, fused parts or gaps): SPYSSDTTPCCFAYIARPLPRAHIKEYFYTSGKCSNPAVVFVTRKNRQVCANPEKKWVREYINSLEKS
hCCR2b (human), sequence (P41597 other isoform, or with tags, fused parts or gaps): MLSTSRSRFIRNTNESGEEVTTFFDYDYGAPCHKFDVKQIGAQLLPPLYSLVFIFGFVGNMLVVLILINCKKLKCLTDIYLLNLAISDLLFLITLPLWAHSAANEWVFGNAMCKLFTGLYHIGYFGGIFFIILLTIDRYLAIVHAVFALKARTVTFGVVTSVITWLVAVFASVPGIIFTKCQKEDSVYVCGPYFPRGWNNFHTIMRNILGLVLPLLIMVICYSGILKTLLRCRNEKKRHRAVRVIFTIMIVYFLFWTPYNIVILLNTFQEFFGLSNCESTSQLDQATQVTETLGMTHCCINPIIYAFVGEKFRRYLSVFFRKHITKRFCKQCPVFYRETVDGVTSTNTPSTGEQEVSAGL

In the assay with hCCR2b (human), “recombinant native MCP-2 (from UniProt P80075 24-99) (ligand)” displayed an EC50, activity (partial agonist) in an Aequorin assay of 23.5 nM.
“biotinylated MCP1 (bMCP1) (from UniProt P13500 24-99) (ligand)” yielded a remaining levels of monocytes after column passage in assay [1] of 20 to 30%. In assay [2], the percent of B cells that bind was 65%.
Substance “biotinRANTES (CCL5): RANTES derivatised at the ε-amino side chain functionality of Lys(67) with Biotin (TFA salt) (from UniProt P13501 24-91) (ligand)” yielded an EC50, agonist activity in an Aequorin assay in assay [3] of 0.5 nM. Also, the reduction of chemokine receptor-expressing cells by the column in assay [4], in assay [5] and in assay [6] was 20% in each case.
On to “recombinant native MCP-1 (from UniProt P13500 24-99) (ligand)”, for which the EC50, agonist activity in an Aequorin assay with hCCR2b (human) was determined as 3.1 nM.

The record behind these values is patent publication EP2717940B1.
